Laboratory results reported in patent US20110166062A1 (INDIANA UNIVERSITY RESEARCH AND TECHNOLOGY, published 2011).
Read-outs that look alike come from different tables or passages of the source. Bridges are numbered along the chain shown (N, C = ends). Where no end group is shown, it is not given here. [ ]: non-standard residue; d: D form. Aib = CC(C)(N)C(=O)O

T1: GIP receptor (UniProt P48546 22-466)
T1 sequence (looked up): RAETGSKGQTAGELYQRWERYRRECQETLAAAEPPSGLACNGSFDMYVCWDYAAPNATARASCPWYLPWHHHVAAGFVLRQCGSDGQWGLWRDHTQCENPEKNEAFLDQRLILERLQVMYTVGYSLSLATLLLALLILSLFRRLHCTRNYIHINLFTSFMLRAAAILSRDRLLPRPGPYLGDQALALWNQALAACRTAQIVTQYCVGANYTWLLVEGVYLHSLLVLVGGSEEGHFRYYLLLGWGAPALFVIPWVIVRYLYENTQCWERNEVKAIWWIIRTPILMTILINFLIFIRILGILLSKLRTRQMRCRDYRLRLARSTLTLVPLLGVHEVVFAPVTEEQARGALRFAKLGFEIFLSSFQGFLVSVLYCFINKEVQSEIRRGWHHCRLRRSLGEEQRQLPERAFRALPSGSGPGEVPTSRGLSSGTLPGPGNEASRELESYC

T2: GIP receptor (UniProt P48546 22-466)
T2 sequence (looked up): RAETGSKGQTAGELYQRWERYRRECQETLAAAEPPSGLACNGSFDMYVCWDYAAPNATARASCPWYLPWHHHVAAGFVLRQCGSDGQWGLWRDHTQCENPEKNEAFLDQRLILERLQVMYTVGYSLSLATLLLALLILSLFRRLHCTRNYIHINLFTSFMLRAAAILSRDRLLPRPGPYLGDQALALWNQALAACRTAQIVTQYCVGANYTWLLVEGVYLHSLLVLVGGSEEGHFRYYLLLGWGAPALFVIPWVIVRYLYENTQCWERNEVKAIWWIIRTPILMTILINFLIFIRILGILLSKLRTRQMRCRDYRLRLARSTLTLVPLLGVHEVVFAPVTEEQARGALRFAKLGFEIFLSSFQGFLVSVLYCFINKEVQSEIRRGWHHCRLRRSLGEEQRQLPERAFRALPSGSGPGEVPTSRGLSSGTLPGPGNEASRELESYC

B1: mt-280 (peptide)
peptide: Y[Aib]QGTFTSDYSIYLDKQAA[Aib]EFVNWLLAGGPSSGAPPPSK-NH2
modifications: N-terminus assumed
SMILES: CC[C@H](C)[C@H](NC(=O)[C@H](CO)NC(=O)[C@H](Cc1ccc(O)cc1)NC(=O)[C@H](CC(=O)O)NC(=O)[C@H](CO)NC(=O)[C@@H](NC(=O)[C@H](Cc1ccccc1)NC(=O)[C@@H](NC(=O)CNC(=O)[C@H](CCC(N)=O)NC(=O)C(C)(C)NC(=O)[C@@H](N)Cc1ccc(O)cc1)[C@@H](C)O)[C@@H](C)O)C(=O)N[C@@H](Cc1ccc(O)cc1)C(=O)N[C@@H](CC(C)C)C(=O)N[C@@H](CC(=O)O)C(=O)N[C@@H](CCCCN)C(=O)N[C@@H](CCC(N)=O)C(=O)N[C@@H](C)C(=O)N[C@@H](C)C(=O)NC(C)(C)C(=O)N[C@@H](CCC(=O)O)C(=O)N[C@@H](Cc1ccccc1)C(=O)N[C@H](C(=O)N[C@@H](CC(N)=O)C(=O)N[C@@H](Cc1c[nH]c2ccccc12)C(=O)N[C@@H](CC(C)C)C(=O)N[C@@H](CC(C)C)C(=O)N[C@@H](C)C(=O)NCC(=O)NCC(=O)N1CCC[C@H]1C(=O)N[C@@H](CO)C(=O)N[C@@H](CO)C(=O)NCC(=O)N[C@@H](C)C(=O)N1CCC[C@H]1C(=O)N1CCC[C@H]1C(=O)N1CCC[C@H]1C(=O)N[C@@H](CO)C(=O)N[C@@H](CCCCN)C(N)=O)C(C)C
B2: mt-165 (peptide)
peptide: Y[Aib]QGTFTSDYSIYLDEQAAKEFVNWLLAGGPSSGAPPPSC-NH2
modifications: lactam 16-20; N-terminus assumed
SMILES: CC[C@H](C)[C@H](NC(=O)[C@H](CO)NC(=O)[C@H](Cc1ccc(O)cc1)NC(=O)[C@H](CC(=O)O)NC(=O)[C@H](CO)NC(=O)[C@@H](NC(=O)[C@H](Cc1ccccc1)NC(=O)[C@@H](NC(=O)CNC(=O)[C@H](CCC(N)=O)NC(=O)C(C)(C)NC(=O)[C@@H](N)Cc1ccc(O)cc1)[C@@H](C)O)[C@@H](C)O)C(=O)N[C@@H](Cc1ccc(O)cc1)C(=O)N[C@@H](CC(C)C)C(=O)N[C@@H](CC(=O)O)C(=O)N[C@H]1CCC(=O)NCCCC[C@@H](C(=O)N[C@@H](CCC(=O)O)C(=O)N[C@@H](Cc2ccccc2)C(=O)N[C@H](C(=O)N[C@@H](CC(N)=O)C(=O)N[C@@H](Cc2c[nH]c3ccccc23)C(=O)N[C@@H](CC(C)C)C(=O)N[C@@H](CC(C)C)C(=O)N[C@@H](C)C(=O)NCC(=O)NCC(=O)N2CCC[C@H]2C(=O)N[C@@H](CO)C(=O)N[C@@H](CO)C(=O)NCC(=O)N[C@@H](C)C(=O)N2CCC[C@H]2C(=O)N2CCC[C@H]2C(=O)N2CCC[C@H]2C(=O)N[C@@H](CO)C(=O)N[C@@H](CS)C(N)=O)C(C)C)NC(=O)[C@H](C)NC(=O)[C@H](C)NC(=O)[C@H](CCC(N)=O)NC1=O
B3: mt-166 (peptide)
peptide: Y[dA]QGTFTSDYSIYLDEQAAKEFVNWLLAGGPSSGAPPPSC-NH2
modifications: lactam 16-20; N-terminus assumed
SMILES: CC[C@H](C)[C@H](NC(=O)[C@H](CO)NC(=O)[C@H](Cc1ccc(O)cc1)NC(=O)[C@H](CC(=O)O)NC(=O)[C@H](CO)NC(=O)[C@@H](NC(=O)[C@H](Cc1ccccc1)NC(=O)[C@@H](NC(=O)CNC(=O)[C@H](CCC(N)=O)NC(=O)[C@@H](C)NC(=O)[C@@H](N)Cc1ccc(O)cc1)[C@@H](C)O)[C@@H](C)O)C(=O)N[C@@H](Cc1ccc(O)cc1)C(=O)N[C@@H](CC(C)C)C(=O)N[C@@H](CC(=O)O)C(=O)N[C@H]1CCC(=O)NCCCC[C@@H](C(=O)N[C@@H](CCC(=O)O)C(=O)N[C@@H](Cc2ccccc2)C(=O)N[C@H](C(=O)N[C@@H](CC(N)=O)C(=O)N[C@@H](Cc2c[nH]c3ccccc23)C(=O)N[C@@H](CC(C)C)C(=O)N[C@@H](CC(C)C)C(=O)N[C@@H](C)C(=O)NCC(=O)NCC(=O)N2CCC[C@H]2C(=O)N[C@@H](CO)C(=O)N[C@@H](CO)C(=O)NCC(=O)N[C@@H](C)C(=O)N2CCC[C@H]2C(=O)N2CCC[C@H]2C(=O)N2CCC[C@H]2C(=O)N[C@@H](CO)C(=O)N[C@@H](CS)C(N)=O)C(C)C)NC(=O)[C@H](C)NC(=O)[C@H](C)NC(=O)[C@H](CCC(N)=O)NC1=O
B4: mt-167 (peptide)
peptide: YSQGTFTSDYSIYLDEEAAKEFVNWLLAGGPSSGAPPPS-NH2
modifications: lactam 17-20; N-terminus assumed
SMILES: CC[C@H](C)[C@H](NC(=O)[C@H](CO)NC(=O)[C@H](Cc1ccc(O)cc1)NC(=O)[C@H](CC(=O)O)NC(=O)[C@H](CO)NC(=O)[C@@H](NC(=O)[C@H](Cc1ccccc1)NC(=O)[C@@H](NC(=O)CNC(=O)[C@H](CCC(N)=O)NC(=O)[C@H](CO)NC(=O)[C@@H](N)Cc1ccc(O)cc1)[C@@H](C)O)[C@@H](C)O)C(=O)N[C@@H](Cc1ccc(O)cc1)C(=O)N[C@@H](CC(C)C)C(=O)N[C@@H](CC(=O)O)C(=O)N[C@@H](CCC(=O)O)C(=O)N[C@H]1CCC(=O)NCCCC[C@@H](C(=O)N[C@@H](CCC(=O)O)C(=O)N[C@@H](Cc2ccccc2)C(=O)N[C@H](C(=O)N[C@@H](CC(N)=O)C(=O)N[C@@H](Cc2c[nH]c3ccccc23)C(=O)N[C@@H](CC(C)C)C(=O)N[C@@H](CC(C)C)C(=O)N[C@@H](C)C(=O)NCC(=O)NCC(=O)N2CCC[C@H]2C(=O)N[C@@H](CO)C(=O)N[C@@H](CO)C(=O)NCC(=O)N[C@@H](C)C(=O)N2CCC[C@H]2C(=O)N2CCC[C@H]2C(=O)N2CCC[C@H]2C(=O)N[C@@H](CO)C(N)=O)C(C)C)NC(=O)[C@H](C)NC(=O)[C@H](C)NC1=O
B5: mt-168 (peptide)
peptide: YSQGTFTSDYSIYLDEQKAKEFVNWLLAGGPSSGAPPPS-NH2
modifications: lactam 18-21; N-terminus assumed
SMILES: CC[C@H](C)[C@H](NC(=O)[C@H](CO)NC(=O)[C@H](Cc1ccc(O)cc1)NC(=O)[C@H](CC(=O)O)NC(=O)[C@H](CO)NC(=O)[C@@H](NC(=O)[C@H](Cc1ccccc1)NC(=O)[C@@H](NC(=O)CNC(=O)[C@H](CCC(N)=O)NC(=O)[C@H](CO)NC(=O)[C@@H](N)Cc1ccc(O)cc1)[C@@H](C)O)[C@@H](C)O)C(=O)N[C@@H](Cc1ccc(O)cc1)C(=O)N[C@@H](CC(C)C)C(=O)N[C@@H](CC(=O)O)C(=O)N[C@@H](CCC(=O)O)C(=O)N[C@@H](CCC(N)=O)C(=O)N[C@H]1CCCCNC(=O)CC[C@@H](C(=O)N[C@@H](Cc2ccccc2)C(=O)N[C@H](C(=O)N[C@@H](CC(N)=O)C(=O)N[C@@H](Cc2c[nH]c3ccccc23)C(=O)N[C@@H](CC(C)C)C(=O)N[C@@H](CC(C)C)C(=O)N[C@@H](C)C(=O)NCC(=O)NCC(=O)N2CCC[C@H]2C(=O)N[C@@H](CO)C(=O)N[C@@H](CO)C(=O)NCC(=O)N[C@@H](C)C(=O)N2CCC[C@H]2C(=O)N2CCC[C@H]2C(=O)N2CCC[C@H]2C(=O)N[C@@H](CO)C(N)=O)C(C)C)NC(=O)[C@H](CCCCN)NC(=O)[C@H](C)NC1=O
B6: mt-169 (peptide)
peptide: Y[Aib]QGTFTSDYSIYLDEQAAKEFVCWLLAG-NH2
modifications: lactam 16-20; N-terminus assumed
SMILES: CC[C@H](C)[C@H](NC(=O)[C@H](CO)NC(=O)[C@H](Cc1ccc(O)cc1)NC(=O)[C@H](CC(=O)O)NC(=O)[C@H](CO)NC(=O)[C@@H](NC(=O)[C@H](Cc1ccccc1)NC(=O)[C@@H](NC(=O)CNC(=O)[C@H](CCC(N)=O)NC(=O)C(C)(C)NC(=O)[C@@H](N)Cc1ccc(O)cc1)[C@@H](C)O)[C@@H](C)O)C(=O)N[C@@H](Cc1ccc(O)cc1)C(=O)N[C@@H](CC(C)C)C(=O)N[C@@H](CC(=O)O)C(=O)N[C@H]1CCC(=O)NCCCC[C@@H](C(=O)N[C@@H](CCC(=O)O)C(=O)N[C@@H](Cc2ccccc2)C(=O)N[C@H](C(=O)N[C@@H](CS)C(=O)N[C@@H](Cc2c[nH]c3ccccc23)C(=O)N[C@@H](CC(C)C)C(=O)N[C@@H](CC(C)C)C(=O)N[C@@H](C)C(=O)NCC(N)=O)C(C)C)NC(=O)[C@H](C)NC(=O)[C@H](C)NC(=O)[C@H](CCC(N)=O)NC1=O

Key:
Assay in all cases: cell-based or functional assay
GIP receptor [1] = molecular target: T1, GIP receptor
glucagon receptor = glucagon receptor (UniProt P47871 26-477, limits assumed)
GLP-1 receptor = GLP-1 receptor (UniProt P43220 24-463, limits assumed)
GIP receptor [2] = molecular target: T2, GIP receptor; remark: listed apart in the source

glucagon receptor, sequence (P47871 26-477 limits assumed): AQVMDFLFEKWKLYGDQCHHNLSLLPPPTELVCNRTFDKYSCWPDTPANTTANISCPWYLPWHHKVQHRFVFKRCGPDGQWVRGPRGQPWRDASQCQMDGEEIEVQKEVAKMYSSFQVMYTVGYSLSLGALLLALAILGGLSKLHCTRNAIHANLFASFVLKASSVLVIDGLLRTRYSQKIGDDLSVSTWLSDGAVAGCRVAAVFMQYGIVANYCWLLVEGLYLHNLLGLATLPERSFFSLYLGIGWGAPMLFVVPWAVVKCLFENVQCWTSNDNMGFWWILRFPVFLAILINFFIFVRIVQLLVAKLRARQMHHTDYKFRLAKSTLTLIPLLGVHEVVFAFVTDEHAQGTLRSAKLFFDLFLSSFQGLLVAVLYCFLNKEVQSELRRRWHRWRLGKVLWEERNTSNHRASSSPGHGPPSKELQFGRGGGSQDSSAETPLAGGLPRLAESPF

Row | Binder | EC50 (GIP receptor [1]) | EC50 (glucagon receptor) | relative activity (glucagon receptor) | EC50 (GLP-1 receptor) | relative activity (GLP-1 receptor) | EC50 (GIP receptor [2]) | relative activity (GIP receptor [2])
1 | B1 | 14.9 pM | – | – | – | – | – | –
2 | B2 | – | 489 pM | 18.8% | 23 pM | 148% | 74 pM | 27%
3 | B3 | – | 875 pM | 9.83% | 134 pM | 26.9% | 320 pM | 5.94%
4 | B4 | – | 362 pM | 34.5% | 315 pM | 7.94% | 399 pM | 5.01%
5 | B5 | – | 2610 pM | 4.79% | 1720 pM | 1.45% | 6240 pM | 0.32%
6 | B6 | – | 199 pM | 51.3% | 57 pM | 54.4% | 142 pM | 14.8%
